Laboratory results as given in IntAct's records for PubMed 26418745.

B1: ALK tyrosine kinase receptor (Homo sapiens), Q9UM73 (parent)
chain: MGAIGLLWLLPLLLSTAAVGSGMGTGQRAGSPAAGPPLQPREPLSYSRLQRKSLAVDFVVPSLFRVYARDLLLPPSSSELKAGRPEARGSLALDCAPLLRLLGPAPGVSWTAGSPAPAEARTLSRVLKGGSVRKLRRAKQLVLELGEEAILEGCVGPPGEAAVGLLQFNLSELFSWWIRQGEGRLRIRLMPEKKASEVGREGRLSAAIRASQPRLLFQIFGTGHSSLESPTNMPSPSPDYFTWNLTWIMKDSFPFLSHRSRYGLECSFDFPCELEYSPPLHDLRNQSWSWRRIPSEEASQMDLLDGPGAERSKEMPRGSFLLLNTSADSKHTILSPWMRSSSEHCTLAVSVHRHLQPSGRYIAQLLPHNEAAREILLMPTPGKHGWTVLQGRIGRPDNPFRVALEYISSGNRSLSAVDFFALKNCSEGTSPGSKMALQSSFTCWNGTVLQLGQACDFHQDCAQGEDESQMCRKLPVGFYCNFEDGFCGWTQGTLSPHTPQWQVRTLKDARFQDHQDHALLLSTTDVPASESATVTSATFPAPIKSSPCELRMSWLIRGVLRGNVSLVLVENKTGKEQGRMVWHVAAYEGLSLWQWMVLPLLDVSDRFWLQMVAWWGQGSRAIVAFDNISISLDCYLTISGEDKILQNTAPKSRNLFERNPNKELKPGENSPRQTPIFDPTVHWLFTTCGASGPHGPTQAQCNNAYQNSNLSVEVGSEGPLKGIQIWKVPATDTYSISGYGAAGGKGGKNTMMRSHGVSVLGIFNLEKDDMLYILVGQQGEDACPSTNQLIQKVCIGENNVIEEEIRVNRSVHEWAGGGGGGGGATYVFKMKDGVPVPLIIAAGGGGRAYGAKTDTFHPERLENNSSVLGLNGNSGAAGGGGGWNDNTSLLWAGKSLQEGATGGHSCPQAMKKWGWETRGGFGGGGGGCSSGGGGGGYIGGNAASNNDPEMDGEDGVSFISPLGILYTPALKVMEGHGEVNIKHYLNCSHCEVDECHMDPESHKVICFCDHGTVLAEDGVSCIVSPTPEPHLPLSLILSVVTSALVAALVLAFSGIMIVYRRKHQELQAMQMELQSPEYKLSKLRTSTIMTDYNPNYCFAGKTSSISDLKEVPRKNITLIRGLGHGAFGEVYEGQVSGMPNDPSPLQVAVKTLPEVCSEQDELDFLMEALIISKFNHQNIVRCIGVSLQSLPRFILLELMAGGDLKSFLRETRPRPSQPSSLAMLDLLHVARDIACGCQYLEENHFIHRDIAARNCLLTCPGPGRVAKIGDFGMARDIYRASYYRKGGCAMLPVKWMPPEAFMEGIFTSKTDTWSFGVLLWEIFSLGYMPYPSKSNQEVLEFVTSGGRMDPPKNCPGPVYRIMTQCWQHQPEDRPNFAIILERIEYCTQDPDVINTALPIEYGPLVEEEEKVPVRPKDPEGVPPLLVSQQAKREEERSPAAPPPLPTTSSGKAAKKPTAAEISVRVPRGPAVEGGHVNMAFSQSNPPSELHKVHGSRNKPTSLWNPTYGSWFTEKPTKKNNPIAKKEPHDRGNLGLEGSCTVPPNVATGRLPGASLLLEPSSLTANMKEVPLFRLRHFPCGNVNYGYQQQGLPLEAATAPGAGHYEDTILKSKNSMNQPGP
partner: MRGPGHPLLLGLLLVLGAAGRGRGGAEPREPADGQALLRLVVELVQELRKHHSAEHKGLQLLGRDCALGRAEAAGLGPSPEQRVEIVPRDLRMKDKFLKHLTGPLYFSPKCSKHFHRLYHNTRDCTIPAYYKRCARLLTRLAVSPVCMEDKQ

Variants of: B1
Details: with alkl2_human ALKAL2, Q6UX46

| Variant | effect of a mutation on the interaction |
| --- | --- |
| G893E | disrupting interaction strength |
| G740D | disrupting interaction strength |
| G934D | disrupting interaction strength |
| G823D | disrupting interaction strength |
